experiment: yeast display, Sf9 membrane polyspecificity reagent, FACS + sequencing; frameworks hold sequencing errors
In short: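 A nanobody's polyreactivity label depends on the gate it was sorted from. Yeast display cells were stained with 10% biotinylated, detergent-solubilized Sf9 membrane reagent for 1 hour at 4 °C, enriched on streptavidin microbeads and sorted by FACS. The low and high (top ~1%) gates were set on anti-HA fluorescence for expression and streptavidin fluorescence for reagent binding.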

Sequence | polyreactivity (PSR sort gate)
QVQLVESGGGLFQAGGSLRLSCAASGITFTRYAMGWYRQAPGKEREFVAAIRRSGGNTYYADSVKGRFTISRDNAKNTVYLQMNSLNPEDTAVYYCAASLRKTSPTRLVDYWGQGTQVTVSS | low polyreactivity
QVQLVESGGGLVQAGGSLRLSCAASGFIFYSYAMGWYRQAPGKERELVAAIDWDDGTTYYADSVKGRFTISRDNAKNTVYLQMNSLNPEDTAVYYCAAESYYGAYDYWGQGTQVTVSS | high polyreactivity
QVHLVESGGGLVQAGGSLRLSFAASGRTFRGNDMGWYRQAPGKERELVATITRNGGSTRYADSVKGRFTISRDNAKNNVYLQMNSLKPEDSAVYYCNARSRYFGYDYWGQGTQVTVSS | high polyreactivity
QVQLVESGGGLVQAGGSLRLSCAASGNTFGDNAMGWYRQAPGKERELVAAISTGGNTYYADSVKGRFTISRDNAKNTVYLQMNSLKPEDTAVYYCNAKWIPDTLFGIHETEGDYWGQGTQVTVSS | low polyreactivity
QVQLVESGGGLDQAGGSLRLSCAASGRIFVYNAMGWSRQAPGKARELVATITFSSSNTYYADSVKGRFTISRENAKNTVYLQMNSLKPEDTAVYYCYRDYVYARDYGNFDYWGQGTQVTVSS | low polyreactivity
QDQLVESRGGLVQAGCSLRLSCAASGFIFLHYTMGSYRQAPRKERELVAGITYGHGSTSYADSVKGRFTISRDNAKNTVYLQMNRLKPEDTAVYYCATRYWYRTSYQLYDYWGQGTQVTVSS | low polyreactivity
QVQLVESGGGLVQAGGSLRLSCAASGSTFWRNALGWYRQAPGKERELVAAITDSGDSTYYADSVKGRFTISRDTAKNTVYLQMHSLKPEDTAVYYCAVDKLSLYGWDEYWGQGTQVTVSS | low polyreactivity
QVQLVESGGGLVQAGGSLRLSCAASGTFKWYAMGWYRQAPGKERELVAVISSSGGTTSYADSVKGRFTITRDNAKNTVYLQMNSLKPEDTAVYYCNRVWSTSMDYWGQGTQVTVSS | high polyreactivity
QVQLVESGGGLVQAGGSLRLSCAASGSTFPKYGMGWYRQAPGKESEFVARINWNGGGTYYADSVKGRFTISRDNAKNTVYLQMNSLKPEDTAVYYCNARKRGARFILGYDYWGQGTQVTVSS | low polyreactivity
QVQLVESGGGLVQAGGSLRFSCAASGRIFRRYAMGWYRQAPGKERELVAAITQSGDSTYYADSVKGRFTISRDNAKNTVYLQMNSLKPEDTAVYYCAAAGGPYRYNYWGQGTQVTVSS | high polyreactivity
QVQLVESGGGLVQAGGSLRLSCAASGSTFGWYVMGWYRQAPGKERELVAAITTGGSTNYADSVKGRFTISRDHAKNSVYLQMNSLKPEDTAVYYCGKAVTEVIYRGVTEGAVDYWGQGTQVTVSS | low polyreactivity
QVQLVESGGGLVQAGGSLRLSCAASGRIFYSNTMGWYRQAPGKERELVAAISRSGGRTYYADSVKGRFTISRDNAKNTVSLQLNSLKPEDTAVYYCNTAYCRNPYYKGYYWGQGTQVTVSS | high polyreactivity
QVQLVESGGGLVQAGGSLRLSCAASGSTFDYYAMGWYRQAPGKERELVAAISSSGSSTYYADSVKGRFTISRDNAKNTVYLQMNSLKPEDTAVYYCNALSNVPYDYWGQGTQVTVSS | low polyreactivity
QVQLVESGGGLVQAGGSLRLSCAASGSIFPYNAMGWYRQAPGKERELVAAITSSGGRTYYADSVKGRFTISRDNAKNTVYLQMNSLKPEDTAVYYCAVEANYHTYWLYYWGQGTQVTVSS | high polyreactivity
QVQLVESGGGLVQAGGSLRLSCAASGRTFRRYAMGWYRQAPGKEREWVAAISRTGSTNNYADSVKGRFTISRDNAKKTVYLQLNSLKPEDTAVYDCNGQLILGYGYDYWGQGTQVTVSS | high polyreactivity
QVQHVETGGGLVQAGGSHRLSCAASGLIFDYNAMGWYTQAPRKERELDADISSGGSTYYADSVKGRFTISSDNGKNSVYLQMNSLKTEDTAVYYCATRRQAQYTRYYGSRQFYYWGQGTQVTVSS | high polyreactivity
QVQLEESGGGLDQAGGSLRLSCAASGRTLATYAMGWYRQAPGKERELVAAISSSGTRTYYADSVKGRFTISRDNAKNTVYFQMNSLNPEDTAVYYCNAGPGYDYWGQGTQLTVSS | high polyreactivity
QVQHVESGRGLVQAGGSLRLICAASGRTFGRNAMGWYRQAPGQERELVAAITSGGSTSYADSVKGRFTISRDNAKNPVYLQMNSLKPEDTAVYYCRQFSVWGYDYWGQGTQLTVSS | high polyreactivity
QVQLVESGGGLVQAGGSLRLSCAASGSIFRSYALGWYRQAPGKERELVAAITWSGGRTYYADSVKGRFTISRDNAKNTVYLQMNSLKPEDTAVYYCNADVWWDTWFLDGYDYWGQGTQVTVSS | high polyreactivity
QVQLVESGGGLVQAGGSLRLSCAASGFTYIFYAMGWYRQAPGKERELVAAITWDGDRTYYADSVKGRFTISRDNAKNTVYLQMNSLKPEDTAVYYCNADEGGNYREDYWGQGTQVTVSS | low polyreactivity
QVQLVESGGGLVQAGGSLRLSCAASGSIFGGYAMGWYRQAPGKERELVAAISRSGASTYYADSVKGRFTISRDNAKNTVYLQMNSLKPVDTAVYYCAAYALRGVRYPYRVDFYYWGQGTQVTVSS | high polyreactivity
QVQLVESGGGLVQAGGSLRLSCAASGSIFNYYTMGWYRQAPGKERELVAAISYRGGRTYYADSVKGRFTISRDNAKNTVYLQMNSLKPEDTAVYYCNAVTRIYEVDYWGQGTQVTVSS | high polyreactivity

Sequence | polyreactivity (PSR sort gate)
QVQLVESGGGLVQAGGSLRLTCAASGSTFFPNDMGWYRQAPGKERELVDAISWRGGNTYADSVKGRFTISRDNAKNTVLLQMNSLKPEDTAVYYCAADVEWTSRGSYYRYYYWGQGTQVTVSS | low polyreactivity
QFQLVESGGGLLQAGGSLRLSCAASGLTFNQKAMGWYTQAPGKDRELVAAISRRGGSTYYADSVKGRFTFSRENAKNTVYLQLNSLKPEDTAVYYCNTRGKSGLWWYYYWGQGTQVTVSS | high polyreactivity
QVHLVESGGGLVQAGGSLRLSCAASGLTFPSNAMGWYRQAPGKERELVAAISKRGGRTYYADSVKGRFTISRDNAKNSVYLQMNSLKPEDTAVYYFATPYAYPGTVQYAGYNYWGQGTQVTVSS | high polyreactivity
QVQLVESGGGLVLAGGSLRLSCAASGNILIGNVMGWYRPAPGKERELVAAITSGGDTYYADSVKGRFTISRDNAKNTVYLQMNSLNPEDTAVYYCAADRPGQPKYEYWRQGTQVTVSS | low polyreactivity
QVQLVESGGGLVQAGGSLRLSCAASGSTFVRYAMGWYRQAPGKERELVAAISKRGGSTYYADSVKGRFTISRDNAKNTVYLQMNSLKPEDTAVYYCAAVPLSSRQYDYWGQGTQVTVSS | high polyreactivity
QVQLVESGGGLVQAGGSLRLSCAASGSIFVYNAMGWYRQAPGKERELVAAITTGGSTNYADSVKGRFTISRDNAKNTVYLQMNSLKPEDTAVYDCNAVHEASYAGVDYWGQGTQVTVSS | low polyreactivity
QVQLVESGGGLVQAGGSLRLSCAASGSIFYRNVMGWYRQAPGKERELVAAISWSGGSTYYADSVKGRFTISRDKSKNTVYLQMNSLKPEDTAVYYCAADIPKTCYPYAFEYWGQGTQVTVSS | low polyreactivity
QVQLVESGGGLVQAGGSLRLSCAACGSILKQYAMGWYRQAPGKERVLDAAITWRGTGTYYADSVKGRFTISRDNAKKTVYLLMNSLQAEDTAVSYCAAKWYRRTYGYLPYTGIVNYDYWGQGTQLTVSS | high polyreactivity
QVQLVESGGGLVQAGGSLRLSCAASGSTFGVNAMGWYRQAPGKERELVAGISVDDSTTYYADSVKGRFTISRDNAKNTVYLQMNSLIPEDTAVYYCAAEREKTLYYLSRFDYWGQGTQVTVSS | low polyreactivity
QVQLVESGGGLVQAGGSLRLSCAASGSTFGIYAMGWYRQAPGKERELVATITGRGGRTYYADSVKGRFTISRDNAKNTVYLQMNSLKQEDTAVYYCNAAYRGYYRYDYWGQGTQVTVSS | high polyreactivity
QVQLVESGGGLVQAGGSLRLSCAASGSIFSVNTKGWYRQAPGKERELVATIRTGDSTNYADSVKGLFTISRDNAKNTVYLQMNSLKPEDTAFYYCAAEWSSLNFDYWGQGTQVTVSS | low polyreactivity
QVQLVESGGGLVQAGGSLRLSCAASGLRFNVYAMGWYRQAPGKERELVAAITSGGSTHYADSVKGRFTISRDNAKNTVYLQMNSLKPEDTAVYYCNKELATARGQSLYRTYSGYGYRGQGTQVTVSS | high polyreactivity
QVQLVESGGGLVQAGGSLRLSCAASGRIFYSNAMGWYRQAPGKERELVAAISRSGVRTYYADSVKGRFTISRDNAKNTVYLQMNSLKPEDTAVYYCAAVIYGTTPQDEYDYWGQGTQVTVSS | low polyreactivity
QVQLVESGGGLVQAGGSLRLSCAASGRTFYPYVMGWYRQAPGKERELVATISWSGGSTYYADSVKGRFTISRDNAKNTVYLQMNSLKPEDTAVYYCAALWPYGYWGQGTQVTVSS | low polyreactivity
QVQLVESGGGLVQAGGSLRLSCAASGFTFRVYAMGWYRQAPGKERELVAVISGTGGRTYYADSVKGRFTISRDNAKNTVYLQMNSLKPEDTAVYYCARRGRPPAIYDYWGQGTQVTVSS | high polyreactivity
QVQLVESGGGLVHAGGSLLLSCDATGISLVRYSMGWYRQAPGKELELVAAISGSGGSTRYADSVKGRFTISRDNAKNTVYLQMNSMIPEDSAVYYCAARGAGPLDNHYSWGQGKQVTVSS | high polyreactivity
QVQLVESGGGLVQAGGSLRLSCAASGSIFPQYAIGWYRQAPGKERELVAAITRSGGGTHYADSVKGRFTISRDNAKNTVYLQMNSLKPEDTAVYYCAKAGYRSEFEYWGQGTQVTVSS | low polyreactivity
QVQLVESGGGLVQAGGSLRLSCAASGYIFTRNAMGWYRQAPGKERELVAAISRSGGSTYYADSLKGRFTISRDNAKNTVYLQMNSLKPEDTSVYYCAAVDKGRPGRDYWGQGTQVTVSS | low polyreactivity
QVQLVESGGGLVQAGGRLRLSCAASGSIFFDYAMGWYRQAPGKERELVAAINSGGTTNYADSVKGRFTISRDNAKNTVYLQMKQPETGRYRGLLLQRLPGYIRWYRWYDYWGQGTQVTVSS | low polyreactivity
QVQLVESGGGLVQAGGSLRLSCAASGSTLYYNAMGWYRQAPGKERELVAAISWSGGSTYYADSVKGRFTISRDNAKNTVYLQMNSLKPEDTAVYYCAADVNYYQHRLYYWGQGTQVTVSS | low polyreactivity
QVQLVESGGGLVQAGGSLRLSCAASGRTFTQYAMGWYRQAPGKERELVARISYSGGTTYYADSVKGRFTISRDNAKNTVYLQMNSLKPEDNAVYYCAKARVVAGYDYWGQGTQVTVSS | high polyreactivity
